Results: article PMC12102759

B1: PEX5 peptide 108-123 (Peroxisomal targeting signal 1 receptor), 16-mer library wild type / PEX14 Pex14 (PEX14 PEX14, residues 16-84) (parent)
chain 1: GVADLALSENWAQEFL
chain 2: TPGSENVLPREPLIATAVKFLQNSRVRQSPLATRRAFLKKKGLTDEEIDMAFQQSGTAADEPSSLGPAT
B2: AMOTL2 peptide 66-81 (Angiomotin-like protein 2), 16-mer library wild type / TNKS ANK (TNKS 12 ANK repeats, residues 174-649) (parent)
chain 1: LQQATRQEPQGQEHQG
chain 2: TGVPAVSGALRELLEACRNGDVSRVKRLVDAANVNAKDMAGRKSSPLHFAAGFGRKDVVEHLLQMGANVHARDDGGLIPLHNACSFGHAEVVSLLLCQGADPNARDNWNYTPLHEAAIKGKIDVCIVLLQHGADPNIRNTDGKSALDLADPSAKAVLTGEYKKDELLEAARSGNEEKLMALLTPLNVNCHASDGRKSTPLHLAAGYNRVRIVQLLLQHGADVHAKDKGGLVPLHNACSYGHYEVTELLLKHGACVNAMDLWQFTPLHEAASKNRVEVCSLLLSHGADPTLVNCHGKSAVDMAPTPELRERLTYEFKGHSLLQAAREADLAKVKKTLALEIINFKQPQSHETALHCAVASLHPKRKQVTELLLRKGANVNEKNKDFMTPLHVAAERAHNDVMEVLHKHGAKMNALDTLGQTALHRAALAGHLQTCRLLLSYGSDPSIISLQGFTAAQMGNEAVQQILSESTPIRTSD
B3: PEX5 peptide 240-255 (Peroxisomal targeting signal 1 receptor), 16-mer library wild type / PEX14 Pex14 (PEX14 PEX14, residues 16-84) (parent)
chain 1: AEQWAAEFIQQQGTSD
chain 2: B1 chain 2
B4: KIAA1671 peptide 600-615 (Uncharacterized protein KIAA1671), 16-mer library wild type / MDM2 SWIB (MDM2 SWIB/MDM2 domain, residues 17-125) (parent)
chain 1: TPEDDRSFQTVWATVF
chain 2: SQIPASEQETLVRPKPLLLKLLKSVGAQKDTYTMKEVLFYLGQYIMTKRLYDEKQQHIVYCSNDLLGDLFGVPSFSVKEHRKIYTMIYRNLVVVNQQESSDSGTSVSEN

Variants of: B1
Assay: proteomic peptide phage display deep mutational scan (ProP-PD DMS): M13 P8 16-mer library selected against immobilised GST-tagged bait for four days (rounds), NGS of the eluted pools per day and pseudo-replica
Settings: with PEX14 Pex14 (PEX14 PEX14, residues 16-84); bait immobilised on MaxiSorp plates (10 µg), library pre-cleared on GST, 2 h binding at 4 °C, five washes; one round per day, days 1-4; value from days 2 and 3; scale: average fractional NGS count over selection days 2 and 3
chain 1 A3P was tested, and the screen value was 0.000212.
Variant chain 1 A3W has a screen value of 7.47e-05.
chain 1 A3F gave a screen value of 0.
chain 1 A3K gave a screen value of 0.000328.
Work on chain 1 A3D yielded a screen value of 0.
chain 1 A3Q gave a screen value of 0.000248.
chain 1 A3R showed a screen value of 0.
In the case of chain 1 A3E, the screen value is reported as 7.71e-05.
Work on chain 1 A3S yielded a screen value of 0.000118.
Variant chain 1 A3H has a screen value of 0.000109.
chain 1 A6F was tested, and the screen value was 0.000385.
chain 1 A6E showed a screen value of 0.

Variants of: B2
Assay: as above
Settings: with TNKS ANK (TNKS 12 ANK repeats, residues 174-649); bait immobilised on MaxiSorp plates (10 µg), library pre-cleared on GST, 2 h binding at 4 °C, five washes; one round per day, days 1-4; value from days 2 and 3; keep out of graded; scale: average fractional NGS count over selection days 2 and 3
chain 1 A4E was tested, and the screen value was 4.24e-05.
chain 1 L1R gave a screen value of 2.19e-05.
With chain 1 E13R the screen value was 0.
With chain 1 E13F the screen value was 1.87e-05.
For chain 1 E13T, the screen value was 1.94e-05.
Work on chain 1 E13D yielded a screen value of 6.42e-05.
chain 1 E13K was tested, and the screen value was 0.
Work on chain 1 E13G yielded a screen value of 5.19e-05.
chain 1 E13W gave a screen value of 1.87e-05.
Variant chain 1 E13P has a screen value of 3.32e-05.
chain 1 Q3E showed a screen value of 9.57e-05.
Work on chain 1 Q3M yielded a screen value of 3.03e-05.
chain 1 Q3R gave a screen value of 0.
In the case of chain 1 Q3K, the screen value is reported as 2.25e-05.
Work on chain 1 Q3I yielded a screen value of 0.000108.
chain 1 G11L gave a screen value of 0.
Work on chain 1 G11N yielded a screen value of 5.06e-05.
Work on chain 1 Q2F yielded a screen value of 3.49e-05.
For chain 1 Q2R, the screen value was 0.
Work on chain 1 Q15K yielded a screen value of 5.01e-05.
Variant chain 1 E8I has a screen value of 6.96e-05.
Work on chain 1 E8N yielded a screen value of 0.000167.
chain 1 Q7S gave a screen value of 0.000105.
Work on chain 1 Q7R yielded a screen value of 0.
For chain 1 Q7D, the screen value was 2.19e-05.
Variant chain 1 Q7I has a screen value of 0.0001.
With chain 1 Q7E the screen value was 2.83e-05.
Work on chain 1 H14P yielded a screen value of 6.39e-05.
For chain 1 H14D, the screen value was 0.
chain 1 H14T showed a screen value of 3.21e-05.
chain 1 H14Y gave a screen value of 8.4e-05.
chain 1 Q10M was tested, and the screen value was 4.87e-05.
Variant chain 1 Q10V has a screen value of 6.99e-05.
Work on chain 1 Q10P yielded a screen value of 6.1e-05.
In the case of chain 1 Q10R, the screen value is reported as 3.15e-05.
chain 1 Q10A gave a screen value of 2.19e-05.
Work on chain 1 Q10T yielded a screen value of 3.04e-05.
In the case of chain 1 Q10F, the screen value is reported as 0.
For chain 1 Q10K, the screen value was 0.
Work on chain 1 T5A yielded a screen value of 2.97e-05.
chain 1 T5E gave a screen value of 5.19e-05.
For chain 1 T5P, the screen value was 5.25e-05.
chain 1 T5R showed a screen value of 0.
Work on chain 1 T5K yielded a screen value of 6.67e-05.
With chain 1 R6K the screen value was 0.
chain 1 R6L showed a screen value of 0.
chain 1 R6S gave a screen value of 6.11e-05.
With chain 1 R6E the screen value was 0.
Variant chain 1 P9Y has a screen value of 0.
Variant chain 1 P9V has a screen value of 9.22e-05.
In the case of chain 1 P9L, the screen value is reported as 0.
In the case of chain 1 P9G, the screen value is reported as 0.
chain 1 P9S showed a screen value of 0.
Variant chain 1 P9I has a screen value of 6.68e-05.
With chain 1 Q12V the screen value was 6.42e-05.
With chain 1 Q12S the screen value was 5.26e-05.
For chain 1 Q12N, the screen value was 2.19e-05.
Variant chain 1 Q12G has a screen value of 3.04e-05.
Work on chain 1 Q12K yielded a screen value of 5.3e-05.
Work on chain 1 Q12E yielded a screen value of 4.24e-05.
chain 1 Q12T gave a screen value of 9.71e-05.
In the case of chain 1 Q12D, the screen value is reported as 0.

Variants of: B3
Assay: as above
Settings: with PEX14 Pex14 (PEX14 PEX14, residues 16-84); bait immobilised on MaxiSorp plates (10 µg), library pre-cleared on GST, 2 h binding at 4 °C, five washes; one round per day, days 1-4; value from days 2 and 3; keep out of graded; scale: average fractional NGS count over selection days 2 and 3
Work on chain 1 F8H yielded a screen value of 0.000234.
In the case of chain 1 F8K, the screen value is reported as 0.
Variant chain 1 F8I has a screen value of 9.8e-05.
For chain 1 F8V, the screen value was 0.
With chain 1 F8D the screen value was 0.000118.
Variant chain 1 T14Y has a screen value of 0.000275.
chain 1 Q11D gave a screen value of 0.
chain 1 Q11T was tested, and the screen value was 0.
In the case of chain 1 W4D, the screen value is reported as 0.000272.
chain 1 W4L was tested, and the screen value was 9.31e-05.
With chain 1 W4N the screen value was 0.
In the case of chain 1 W4P, the screen value is reported as 0.
Work on chain 1 W4H yielded a screen value of 5.68e-05.
chain 1 W4Q gave a screen value of 0.
For chain 1 W4R, the screen value was 0.000107.
With chain 1 W4G the screen value was 6.63e-05.
chain 1 I9S gave a screen value of 0.00015.
In the case of chain 1 I9P, the screen value is reported as 0.000232.
chain 1 Q3E showed a screen value of 0.000171.
In the case of chain 1 Q3F, the screen value is reported as 0.
chain 1 Q3Y was tested, and the screen value was 9.56e-05.
In the case of chain 1 S15E, the screen value is reported as 0.000269.
Variant chain 1 S15M has a screen value of 0.000166.
For chain 1 S15F, the screen value was 9.56e-05.
Variant chain 1 S15N has a screen value of 0.
chain 1 Q10S gave a screen value of 0.00027.
With chain 1 G13R the screen value was 0.
With chain 1 G13L the screen value was 0.
With chain 1 G13N the screen value was 0.000117.
chain 1 Q12N showed a screen value of 0.000241.
In the case of chain 1 Q12T, the screen value is reported as 0.000175.
chain 1 Q12R was tested, and the screen value was 0.

Variants of: B4
Assay: as above
Settings: with MDM2 SWIB (MDM2 SWIB/MDM2 domain, residues 17-125); bait immobilised on MaxiSorp plates (10 µg), library pre-cleared on GST, 2 h binding at 4 °C, five washes; one round per day, days 1-4; value from days 2 and 3; keep out of graded; scale: average fractional NGS count over selection days 2 and 3
chain 1 Q9E was tested, and the screen value was 8.49e-05.
In the case of chain 1 Q9F, the screen value is reported as 5.33e-05.
chain 1 Q9G showed a screen value of 0.000111.
chain 1 Q9S was tested, and the screen value was 8.1e-05.
chain 1 Q9M showed a screen value of 0.000681.
chain 1 Q9I was tested, and the screen value was 0.000133.
With chain 1 Q9T the screen value was 4.79e-05.
chain 1 Q9N showed a screen value of 0.
chain 1 Q9Y gave a screen value of 0.000186.
With chain 1 Q9D the screen value was 0.
Variant chain 1 Q9W has a screen value of 0.000575.
For chain 1 Q9P, the screen value was 7.92e-05.
chain 1 Q9A showed a screen value of 0.000111.
With chain 1 Q9L the screen value was 0.00104.
chain 1 V15G was tested, and the screen value was 0.
chain 1 V15A showed a screen value of 0.000191.
With chain 1 V15M the screen value was 8.76e-05.
With chain 1 V15F the screen value was 0.000104.
chain 1 V15P showed a screen value of 0.
Variant chain 1 V15N has a screen value of 0.
chain 1 V15W gave a screen value of 0.000109.
chain 1 V15S showed a screen value of 2.82e-05.
chain 1 S7Q was tested, and the screen value was 0.000194.
chain 1 S7N was tested, and the screen value was 5.84e-05.
Variant chain 1 S7W has a screen value of 0.000517.
chain 1 S7K gave a screen value of 6.18e-05.
Variant chain 1 S7F has a screen value of 3.36e-05.
chain 1 S7L was tested, and the screen value was 0.000105.
Work on chain 1 S7P yielded a screen value of 2.82e-05.
In the case of chain 1 S7T, the screen value is reported as 6.52e-05.
With chain 1 E3R the screen value was 0.000648.
chain 1 E3H showed a screen value of 0.000765.
chain 1 E3A showed a screen value of 0.00018.
chain 1 E3I gave a screen value of 0.000166.
For chain 1 E3L, the screen value was 0.000185.
chain 1 E3W was tested, and the screen value was 0.000218.
chain 1 E3G showed a screen value of 0.000104.
Variant chain 1 E3K has a screen value of 0.000111.
In the case of chain 1 E3S, the screen value is reported as 0.00105.
In the case of chain 1 E3F, the screen value is reported as 1.83e-05.
chain 1 E3V gave a screen value of 0.00284.
Work on chain 1 E3Y yielded a screen value of 0.00068.
In the case of chain 1 E3Q, the screen value is reported as 4.56e-05.
For chain 1 E3N, the screen value was 4.32e-05.
Work on chain 1 E3T yielded a screen value of 0.000371.
For chain 1 E3P, the screen value was 5.24e-05.
In the case of chain 1 T14I, the screen value is reported as 3.81e-05.
chain 1 T14H was tested, and the screen value was 4.28e-05.
Variant chain 1 T14G has a screen value of 5.64e-05.
Work on chain 1 T14V yielded a screen value of 1.9e-05.
chain 1 T14Y showed a screen value of 0.000108.
chain 1 T14E showed a screen value of 0.000268.
Work on chain 1 T14S yielded a screen value of 0.000516.
chain 1 T14M gave a screen value of 0.00063.
For chain 1 T14R, the screen value was 0.00282.
Work on chain 1 T14N yielded a screen value of 0.000664.
Work on chain 1 T14D yielded a screen value of 9.35e-05.
In the case of chain 1 T14Q, the screen value is reported as 3.86e-05.
Variant chain 1 T14W has a screen value of 0.000103.
Work on chain 1 T14A yielded a screen value of 2.89e-05.
In the case of chain 1 D4Q, the screen value is reported as 0.000505.
